Experimental data taken from the DeepSol protein solubility set.

Assay: soluble on expression in E. coli; label from the status in PepcDB or PDB records

Sequence | soluble on expression in E. coli
MSLAPRPRILICEDDPDIARLLNLMLEKGGFDSDMVHSAAQALEQVARRPYAAMTVDLNLPDQDGVSLIRALRRDSRTRDLAIVVVSANAREGELEFNSQPLAVSTWLEKPIDENLLILSLHRAIDNMAEGKPRILHVEDDLDIQRIAAAIAQNFATFEFACTLQEARDQLASHHYDLVLLDLTLKDGSGWELLSTIEALDPAPPVVVFSASKLNMMESQRVEAVLVKADTSNEELIRVLQRVLDDSLWGTVDSPLSEGHHHHHH | soluble
MSLAQFYSAKRRTTTRQIITVSVNDLDSFGQGVARHNGKTLFIPGLLPQENAEVTVTEDKKQYARAKVVRRLSDSPERETPRCPHFGVCGGCQQQHASVDLQQRSKSAALARLMKHDVSEVIADVPWGYRRRARLSLNYLPKTQQLQMGFRKAGSSDIVDVKQCPILAPQLEALLPKVRACLGSLQAMRHLGHVELVQATSGTLMILRHTAPLSSADREKLERFSHSEGLDLYLAPDSEILETVSGEMPWYDSNGLRLTFSPRDFIQVNAGVNQKMVARALEWLDVQPEDRVLDLFCGMGNFTLPLATQAASVVGVEGVPALVEKGQQNARLNGLQNVTFYHENLEEDVTKQPWAKNGFDKVLLDPARAGAAGVMQQIIKLEPIRIVYVSCNPATLARDSEALLKAGYTIARLAMLDMFPHTGHLESMVLFSRVKEGHHHHHH | soluble
MSLAQKRYKHILWDLDGTIIDSKIGVSESIRYCLKYFNIEVTCLDEFKPMIGPPLQDSLREIYNFSPQQVEIACKLYDEYYMKKGIHEYKVFQNIEKVLSQLQNDNKELYVATTKPEYAAKQLLADCKLDTYFKFIGGDNEEFTRSNKADVIQYVLSANNISATDNVVMIGDRKYDMLAAKKIGIDTIGVLYGYGDRNELLTNGAQYIIEEPYELLNLLKGEGHHHHHH | soluble
MSLAQLIFDEEKVTSVIDRIVKRTFQMDFAWDWPGGVAFYGVAEAYEATENEEYINLLKTWVDEQLEDGLPPLSINGVSIGHTLLFLHKVTGDDVYLETAAEMAEYVLHKAPRFGEGILQHTVNAAEYVFPEQAWADTLMMAGLFMLRIGRVMEREDYFEDGLRQFHGHEDVLQDPVTNLYYHAWDNKAQNHLSGIYWGRANGWAALTMAKALPLIEVTHPSFMIIDGSLRDQLSALVRLQDESGLWHTILDDPDSYLEVSASAGIASALMSSGKLYTKYVQKSLAAILDAVEEDGRVSRVSAGTAVMKNAEGYKQVPYKRIQGWGQGLALTFLADVLKTKKRLYQEGHHHHHH | soluble
MSLAQTQLSYKNKTYQISYEILGDLSLPQILILHGWGADKKLMKQSFCPFLKDFCQIYMDLAGFGNSSVEEILNTQDYANITELFLKQKKLNVCFFMGHSFGGKVSTLLAKEKDTLILLSSAGILAKKSLKVRFKIRIFKILKLFGLGKFYRYFASKDGANLSPIMYETFKKVVDEDFSEIFAKQKAKSLIFWGKSDEATPLYCGEKMHQFLKNSTFYPLEGDHFFFLKHSAFIAQKIKEEGHHHHHH | soluble
MSLARARMKERGVEVSDIAELVFFLQKKYHPDLTIDECTLNVNRVLAKREVQNAILTGIELDVLAEQKKLSEPLQTMLEIDESLYGVDEVLAFSIVNIYGSIGFTNYGYIDKEKPGILKRLNDKSTGECHTFLDDIVGAISAAASSRLAHREGHHHHHH | not soluble
MSLARHEAIVEPAQSTHTSGAHTSGAQAQPGVRPTTAAGRWRDVEMMAYKQDDAAPFRDVTRQLLFSDPRLACEWRYFEVAAGGYSTLEKHDHVHGVMIHRGKGQCLVGHHVSDVAVGDLVFIPPQTWHQFRANAGDVLGFLCLVNAERDRPQLPGDGDLAALRADPAIADFLSSEGHHHHHH | soluble
MSLARPLSFHEDRLFPSDPATRSYARGLYALVKDLPIISPHGHTDPSWFATNAPFQDATDLLLAPDHYLFRMLYSQGVSLDALKVRSKAGVPDTDPREAWRVFASHFYLFRGTPSWVWLNHVFSQVFGFTEFLEASNADDYFDRITAALATDAFRPRALFDRFNIETLATTEGPHESLQHHAAIRESGWGGHVITAYRPDAVIDFEDERSPRAFERFAETSGQDVYSWKSYLEAHRLRRQAFIDAGATSSDHGHPTAATADLSDVEAEALFNSLVKGDVTPEKAELFRAQMLTEMAKMSLDDGLVMQIHPGSHRNHNVGLLNSHGRDKGADIPMRTEYVDALKPLLTRLGNDPRLSIILFTLDETTYSRELAPLAGHYPVLKLGPSWWFHDSPEGMMRFREQVTETAGFYNTVGFNDDTRAFLSIPARHDVARRVDSAFLARMVAEHRMDLVEAEELIVDLTYNLPKKAYKLDQRPDWARPATLRAAAEEGHHHHHH | soluble
MSLASAMASSALREATCTMTRLAADVAASVSSIFSCKDSAGPRPVVPATKTTSTPLDVMFFTWFAKSSGSSLPPLKVVMTGATISIDSTRGALKKLARKGIKGWLNQYMATIKEIEPIVLYEQETDARWASYSILVRVVTSDGRVSYGEAVPTLRILPVVSAVRQTARAFLGRDPHEISAAFYEWYRQDFFLSRSFESATALSAIDMALWDLKARELGAPLYELLGGKLRDRVKVYANGWYGGCRDPQCFAEKAKEVVARGYDALKFDPFGPSFNSITSEELRRAEEAVAAVRDAVGDDVDILIEHHGRFNANAAVEIAKRFEPYRPYFMEEPLHHEDIEGYRKYRSLTSARIAMGERLISAKEALQYLVEGLVDVIQPDACNIGGVTGSMKVAALAEAFSVEVSYHNAYGPVQFALEVQLSAVTPTLYRLESFYDYWPQWKRDLIGDPFRLSQSSVEVPRGPGIGVAVNERVLEKYRAEPSEIPVGEEPVWVVRGTWREGHHHHHH | not soluble
MSLASIRDIARQAEVSPGTVSRVLNNDPTLSVAKETRTRIHQIAQALQYEKVTRKNKRIQIITYASREKEMSDPYYREIRLAIEAEVKRLNLSLKRTIRIDGQQDHIDLNKIENAGAIIVIGNFSVDALNKLKTHNANMVVINNPNTPKSIDAVYSDLDDAMTELLNRILDKGLTKIAYIGGHHTIRELNGITTTNAADVRYQAYQSWCEKHDVEEIVLLNGWGKTQGEDAVKVYLESDHAFPQVFIAGNDMIAIGILQQLQLNKKAIPEEVKLISFNDLEVIQYAVPSISSVHIPVDEFGRTAVRMAEERINNTRQIAIHVVVEAQLKARNTFKVEGHHHHHH | soluble
MSLASLCDLVGLPRSSFYRQSVFKVLEDQECETELRHQMQLICLEMPGYSYRRITAELHRRGWPVNHKRVLRLMRQDNLLCLRRKAFVRTTDSEHGFRVYPNLATNLMPSGLNQLWISDITYIRLQEEFVYLAIILDRYSRRVIGWSLSRHIDMELSLSALRMALSNREVLPGLIHHSDRGVQYASKAYIELLEEHKIAISMSRRGNPYDNAFAESFMKTLKYEEVLLNEYGDYREAQGNIARFIEEVYNRKRLHSSIGYLPPVEFEARVEHEISPASHPTEGHHHHHH | soluble
MSLASNVLLQASRLGEMVIKRGGATGLMVHRDTKENNLNVKFKFTSENQERIKAIMDIYPEGHKAGALIPLLDLAQRQHGWLPISAMHEVAKILEVPRMRAYEVATFYTMFNRQPVGKYFLQVCATTPCMLRGAETITETIEKKLGIHAGETTKDGLFTLAEVECLGACVNAPMIQINDDYFEDLTPKDVNEILDDLKAGRKPAAGPRSGRLAAEPFGELTSLKETPPGPGFGLQAALK | not soluble
MSLATIATLRVLLLAIPDDAAPESDLNLVSWTILNGLRRECERRGIRIVPFVSTGRRIDGAQVRQMALAERADGIVVLNDDQPELIRSLASPDMPVVIVNGEDPAMLVDTVTPENRFGARLGIEHLLALGHRRILHLTWKGRTTIQRRYDGFSDAYLAAQLPVPDNMVVEAEGYEPRHGEAAINALLDRDATVKGATAVFCAADNMALGCLKALADRDIRVPEAISVLGFDDIVPGEFSRPPLSTVSVPTDKLGAAALALIEQRLIANDPQRPAHRLELGCHLVLRGSEGHHHHHH | not soluble
MSLATIKDIAKEVGCSISTVSRVLNNDPTLSVGDETRSRIFEVAEEIGYRKKTLKTLVKNIAFLYWLTDNEELEDVYFQTMRVEIEKKARENNIELTTYKLEGGIEKIPLDIDGFIAVGSFMNRELEYLRELTPHGVFIDSTPDPAHYDSVRPDLAQITRQAVEVLVEQGHEKIGFIGGTYHNLDTDAEEMDGRERAFRQTMEERDLLREDFIFCRRGFSVDNGHYLMNQAVEQLGEELPTAFYVAADPIAVGCLQVLNEQQIEIPKRVSLISVNDTSISKYVSPPLTTFHIDLEEICQNAIQLLLERVLKKRNIVKTVYIGAELITRKSTEGHHHHHH | soluble
MSLAYISLKSNLENPKYSLNVAHLYGDLMNTYGDNGNILMLKYVGEKLGAEMTFNIVSLGDTFAKEDYDLVFWGGGQDYEQEIIADQSLIDLSAPLKDYIESEKPLLAICGGYQMLGQYYVNSEGTKIQGTGILGHYTENLRTDRFIGDIETHNEEFGETYYGFENHSGITYLSDDEKPLGTVVYGGGNNPDDQTEGLIYKNTFGTYFHGPILSRNARLAYRLVTTALYQKYGEEIQLPAFEEILADEDKGQQIGDLKRKVEKEGHHHHHH | soluble
MSLAYIYLMRHAKTVMNIEGRWQGINDSDIPEESLRHFEERIRFLAGKNIKAIYSSCLVRSIKSATVAASILGIDHIETVRGFNERDLGLMEGKTNDEIREKFGITDIYIASRAIESIPMVEPWPKFVGRVMATLQAFSGRDGSLVITHGGVMRAIYNTLTGSNERRVIFDNGYILKLEFSGSWRISEIIGQEGHHHHHH | soluble
MSLDDLLKEVLKDKRLLEVLRHLKRANVDYGKSIMLNTKIPLTEVLDVLDKLESLGLIERVTGATLKNTEAKFKLSQEVHKHHTYYRLTRDGDHLLRRLDEKDIIDAYAEIVKDDEVGLKLLYYAEELHSDHALTYSKLLRKPLEEITPKIEELERMGLMEEKNSKVIKFRERRAKPEGHHHHHH | not soluble
MSLDDQITNAAEKGVTDRFYGLIPNGYLFIENGLISAFGPMSALQENLTNSTAMSQIDDAIDAAGRLLTPALIDCHTHVVYGGHRALEFEMRLKGASYAEMAKAGGGIVSTVSATRSQSVEQLVQGALARVDALIAEGISLIEIKSGYGLDIETELRMLRAARSIEAARPVRVITSFLGAHAMPPGEDMSPEGYIEKTCIPALHQAHKEGLVDAVDGFCESIAFSADQIVPLFNVAAELGLPVKLHAEQLTRCGGSLLAASHKALSVDHVEYANKEDVRALAAAGCSAVLLPGAFYTLRETQKPPVALFRDQGVPMAIATDANPGSSPMTSLLLAMNMGCTLFGMTPYEALAGVTRNAARALGVSDSGMLRPGLRADLALWDVAHPAELAYRIGFNPLHRRIFGGQIAEGHHHHHH | soluble
MSLDFHGVFPYLVSPVDAEGRVRADVMGRLCDDLIQAGVHGLTPLGSTGEFAYLGTAQREAVVRATIEAAQRRVPVVAGVASTSVADAVAQAKLYEKLGADGILAILEAYFPLKDAQIESYFRAIADAVEIPVVIYTNPQFQRSDLTLDVIARLAEHPRIRYIKDASTNTGRLLSIINRCGDALQVFSASAHIPAAVMLIGGVGWMAGPACIAPRQSVALYELCKAQRWDEALMLQRKLWRVNEAFAKFNLAACIKAGLALQGYDVGDPIPPQAALTAEERKAVEKVLAEIAEGHHHHHH | soluble
MSLDISFQIQDAVASVIRAPLASPFRIATGQHDELENVFLKLTTRDGVSGYGEAAVASHITGETVPGTLANLQNAAAALRGQTVDDAESACRQFAAAFAGNHAGLAALEMALLDLSSRVRGIPFYRLFAPVAALEPRLAFSTDITVVIGSLDEARATAREFASRGFKAFKIKIGRDEQLDLARVLAVHEIAPDSQIILDANMGFSAGSMLAFLDRLAAKGVRPVLLEQPVPKMDWDGLSEITAALTGSETLVCADESVGSLADARRAIDSNAVSAINVKFMKSGILEGAEIARLAASRGIRLMLGAMMESALAVTASAHFAAGLACFDYLDMDTTFFLKGELAHSPYLDEHGRFDLHDAGPGIGVEPRFSEGHHHHHH | soluble
